From paper PMC5875850, “Insights into DNA substrate selection by APOBEC3G from structural, biochemical, and functional studies”

How the values were obtained:
[1] = target: A3GCTD WT (A3G191-384-2K3A) (Homo sapiens, UniProt Q9HC16 191-384, L234K;C243A;F310K;C321A;C356A); experiment: single-turnover deamination kinetics (kobs vs [E], hyperbolic fit); Kinetic Kd: 20 mM Tris pH 8.0, 1 mM DTT, 37 C, 1-50 uM enzyme, 40 nM DNA; SEC/complex: 50 mM Tris pH 7.0, 100 mM NaCl, 0.1 mM TCEP (stated for the Pot1-A3GCTD gel filtration); crystals 20 C, 100 mM HEPES pH 7, 200 mM LiCl, 20% PEG 6000; conditions: protein: recombinant; tags: His6-MBP tag removed by SARS-CoV Mpro; label: 5' 32P; single strand
[2] = target: Pot1-A3GCTD fusion (Pot1A3GCTD) (Schizosaccharomyces pombe (Pot1) / Homo …, UniProt O13988 1-185+Q9HC16:195-384, L234K;C243A;F310K;C321A;C356A;internal_change); experiment: size exclusion chromatography; Kinetic Kd: 20 mM Tris pH 8.0, 1 mM DTT, 37 C, 1-50 uM enzyme, 40 nM DNA; SEC/complex: 50 mM Tris pH 7.0, 100 mM NaCl, 0.1 mM TCEP (stated for the Pot1-A3GCTD gel filtration); crystals 20 C, 100 mM HEPES pH 7, 200 mM LiCl, 20% PEG 6000; conditions: protein: recombinant; tags: His6-Staph nuclease tag removed by SARS-CoV Mpro; single strand
Chain of Pot1-A3GCTD fusion (Pot1A3GCTD) (O13988 other isoform, or with tags, fused parts or gaps L234K;C243A;F310K;C321A;C356A;): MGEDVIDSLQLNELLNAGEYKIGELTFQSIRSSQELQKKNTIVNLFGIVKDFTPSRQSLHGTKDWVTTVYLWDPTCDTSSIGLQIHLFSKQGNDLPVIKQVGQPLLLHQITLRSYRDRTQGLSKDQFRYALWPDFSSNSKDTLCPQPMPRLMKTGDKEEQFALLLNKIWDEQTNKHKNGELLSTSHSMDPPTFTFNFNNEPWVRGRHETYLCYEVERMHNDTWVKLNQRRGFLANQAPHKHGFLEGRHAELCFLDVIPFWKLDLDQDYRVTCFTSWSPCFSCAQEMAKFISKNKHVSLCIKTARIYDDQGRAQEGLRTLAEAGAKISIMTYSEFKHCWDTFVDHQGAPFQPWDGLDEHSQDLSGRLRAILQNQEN

Chain of A3GCTD WT (A3G191-384-2K3A) (Q9HC16 191-384 L234K/C243A/F310K/C321A/C356A, one chain of several): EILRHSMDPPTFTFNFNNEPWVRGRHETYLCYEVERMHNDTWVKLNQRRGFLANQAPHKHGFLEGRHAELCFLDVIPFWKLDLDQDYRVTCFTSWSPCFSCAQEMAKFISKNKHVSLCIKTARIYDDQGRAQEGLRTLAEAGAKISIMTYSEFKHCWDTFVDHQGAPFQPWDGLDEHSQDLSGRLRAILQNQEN

Binder: TAGAAAGGGAGACCCAAAGAGGAAAGGTGA (ssDNA) [CCCA 30-mer]
- Kd [1]: 26 µM

Binder: AGAAGACCCAAAGAAGAGGAAGCAGGTTAC (ssDNA) [30nt Pot1/A3G substrate (CCCA + GGTTAC)]
- binding result [2]: binds
